Results as given in paper PMC3549491, “Structural Basis of the Intracellular Sorting of the SNARE VAMP7 by the AP3 Adaptor Complex” (Developmental Cell, 2012).

T1: VAMP7 longin domain (UniProt P70280 1-120)
T1 chain: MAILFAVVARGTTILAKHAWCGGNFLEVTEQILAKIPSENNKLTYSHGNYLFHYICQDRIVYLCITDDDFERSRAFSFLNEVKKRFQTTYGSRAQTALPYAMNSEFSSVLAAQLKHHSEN

T2: VAMP7 longin domain (UniProt P70280 1-120)
T2 construct: VAMP7 (Ti-VAMP), longin domain; also called VAMP7LD; VAMP longin domain
T2 sequence (looked up): T1 chain

B1: GST δ-adaptin (680–728) (domain or fragment, UniProt O14617-5 680-728, looked up)
chain: PFYIKSSPSPQKRYQDTPGVEHIPVVQIDLSVPLKVPGLPMSDQYVKLE
notes: source: Rosetta2(DE3)pLysS, purified (glutathione-Sepharose, Superdex 75)

Legend:
[1] = molecular target: T1, VAMP7 longin domain; assay: ITC
[2] = molecular target: VAMP7 longin domain L43S/Y45S (UniProt P70280 1-120, L43S | Y45S); assay: ITC
[3] = molecular target: T2, VAMP7 longin domain; assay: ITC; Microcal Auto-iTC200; VAMP7 longin domain in the cell at 0.15–0.2 mM, GST delta constructs at 0.8–1.2 mM titrated; 50 mM HEPES pH 7.4, 200 mM NaCl, 4 mM ß-mercaptoethanol; details: both partners purified

Binder | Kd [1] [µM] | Kd [2] [µM] | Kd [3] [µM]
PFYIKSSPSPQKRYQDTPGVEHSPSVQIDLSVPLKVPGLPMSDQYVKLE (domain or fragment) [GST δ-adaptin (680–728) I702S/V704S] | > 300 |  | 
B1 |  | > 300 | 14
PFYIKSSPSPQKRYQDTPGVEHIPVVQIDSSVPSKVPGLPMSDQYVKLE (domain or fragment) [GST δ-adaptin (680–728) L709S/L713S] | > 300 |  | 
